Measurements: PMC8082267, “Inhibition of the PP2A activity by the histone chaperone ANP32B is long-range allosterically regulated by respiratory cytochrome c” (Redox Biology, 2021)

B1: cytochrome c (natural protein)
chain: not shown
modifications: heme group; kept in the reduced redox state; 15N-labelled in the NMR titrations
notes: cytochrome c, human (the anti-human Cc serum was raised against this recombinant Cc); NMR assignment BMRB 5406 and structure PDB 1J3S are used for it; also called Cc; respiratory cytochrome c; source: E. coli BL21 (DE3), pBTR1 vector also encoding yeast heme lyase, purified (carboxymethyl cellulose ion exchange)
B2: recombinant respiratory cytochrome c (natural protein)
chain: not shown
modifications: heme group (hemeprotein), reduced with sodium ascorbate; 15N-labelled in the HSQC titrations
notes: cytochrome c, human; also called Cc; the hemeprotein

Assays:
Conditions in all cases: both partners purified
[1] = molecular target: T1, full-length ANP32B (ANP32B1-251) (human, UniProt Q92688-1 1-251); test: ITC; reduced Cc (400 uM stock) injected into ANP32B1-251 (50 uM) in the cell; 10 mM sodium phosphate pH 7.4 with 150 mM NaCl; single binding site
T1 construct: also called Acidic leucine-rich Nuclear Phosphoprotein 32 family member B; source: E. coli BL21 (DE3) pLysS, pET28a(+), purified (Ni-NTA, Superdex 200)
T1 sequence (Q92688 whole entry): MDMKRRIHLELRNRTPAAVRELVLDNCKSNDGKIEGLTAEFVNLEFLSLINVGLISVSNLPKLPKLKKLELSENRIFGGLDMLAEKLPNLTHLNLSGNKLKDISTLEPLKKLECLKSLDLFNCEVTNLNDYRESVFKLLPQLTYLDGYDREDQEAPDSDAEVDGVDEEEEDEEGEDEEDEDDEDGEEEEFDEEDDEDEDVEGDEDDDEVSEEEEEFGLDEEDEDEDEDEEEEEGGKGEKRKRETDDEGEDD

[2] = molecular target: T2, full-length ANP32B (ANP32B_(1-251)), recombinant (human, UniProt Q92688-1 1-251); test: ITC; high ionic strength: reduced Cc injected into ANP32B_(1-251), 10 mM sodium phosphate pH 7.4 with 150 mM NaCl
T2 construct: cloned by PCR from cDNA (Geneservice, UK) into pET28a(+); source: E. coli BL21 (DE3) pLysS, purified (Ni-NTA, Superdex 200)
T2 sequence (Q92688 whole entry): as above

[3] = molecular target: T3, ANP32B construct lacking its Nuclear Localization Signal sequence (ANP32B_(1-231)) (human, UniProt Q92688-1 1-231); test: ITC; low ionic strength: 400 μM reduced Cc injected into ANP32B construct in the cell (50 μM ANP32B_(1-251), 40 μM ANP32B_(1-231), 50 μM ANP32B_(1-161)), 10 mM sodium phosphate pH 7.4; models with one or two independent binding sites
T3 construct: lacks the 20-amino acid C-end stretch; source: E. coli BL21 (DE3) pLysS, purified (Ni-NTA, Superdex 200)
T3 sequence (Q92688 1-231): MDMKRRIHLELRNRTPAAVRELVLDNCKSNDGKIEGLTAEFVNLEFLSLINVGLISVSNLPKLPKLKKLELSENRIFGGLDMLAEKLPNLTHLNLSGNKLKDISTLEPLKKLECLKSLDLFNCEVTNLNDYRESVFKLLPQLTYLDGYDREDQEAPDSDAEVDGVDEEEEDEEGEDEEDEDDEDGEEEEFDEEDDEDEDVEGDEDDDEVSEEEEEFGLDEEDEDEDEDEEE

[4] = molecular target: T2, full-length ANP32B (ANP32B_(1-251)), …; test: as above

Binder | Kd [1] [µM] | stoichiometry N [1] | stoichiometry N [2] | Kd [3] [µM] | dH [3] [kJ/mol] | stoichiometry N [3] | dH, higher-affinity site (two independent sites) [4] [kJ/mol] | dH, lower-affinity site (two independent sites) [4] [kJ/mol]
B1 | 9.1 | 1.2 |  |  |  |  |  | 
B2 |  |  | 1 | 8 | -15.1 | 1.09 | -44.8 | 123
